From PMC11575451 (The Journal of Cell Biology, 2024)

Target: T1, FLAG-HA-RTN3L (human, UniProt O95197 1-1032)
T1 sequence (looked up): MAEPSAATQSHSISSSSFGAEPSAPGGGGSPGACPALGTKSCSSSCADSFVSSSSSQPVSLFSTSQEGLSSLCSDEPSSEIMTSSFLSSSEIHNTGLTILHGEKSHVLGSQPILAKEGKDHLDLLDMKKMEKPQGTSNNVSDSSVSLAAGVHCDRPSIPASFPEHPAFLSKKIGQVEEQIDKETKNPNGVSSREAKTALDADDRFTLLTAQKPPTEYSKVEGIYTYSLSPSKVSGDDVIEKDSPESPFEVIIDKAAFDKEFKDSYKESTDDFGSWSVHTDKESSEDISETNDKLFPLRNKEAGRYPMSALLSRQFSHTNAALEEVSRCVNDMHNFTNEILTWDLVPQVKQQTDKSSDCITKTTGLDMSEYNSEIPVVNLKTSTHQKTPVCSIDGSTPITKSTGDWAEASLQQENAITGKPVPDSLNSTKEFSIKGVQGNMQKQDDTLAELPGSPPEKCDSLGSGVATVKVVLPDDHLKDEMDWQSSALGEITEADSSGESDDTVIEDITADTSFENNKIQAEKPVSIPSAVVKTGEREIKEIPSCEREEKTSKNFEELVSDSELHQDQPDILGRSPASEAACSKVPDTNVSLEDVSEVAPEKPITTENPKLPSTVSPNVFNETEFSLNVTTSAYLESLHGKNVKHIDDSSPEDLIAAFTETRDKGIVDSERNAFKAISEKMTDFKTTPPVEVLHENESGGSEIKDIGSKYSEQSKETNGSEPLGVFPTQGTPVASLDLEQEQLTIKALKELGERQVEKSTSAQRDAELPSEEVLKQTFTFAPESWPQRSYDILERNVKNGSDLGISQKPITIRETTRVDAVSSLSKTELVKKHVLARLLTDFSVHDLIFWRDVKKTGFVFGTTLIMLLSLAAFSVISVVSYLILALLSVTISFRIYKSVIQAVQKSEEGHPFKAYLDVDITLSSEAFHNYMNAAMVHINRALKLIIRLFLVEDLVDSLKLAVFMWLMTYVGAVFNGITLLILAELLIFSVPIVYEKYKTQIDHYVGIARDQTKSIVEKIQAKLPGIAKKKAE
Assay: co-IP

B1: PEF1 (natural protein, human (endogenous in U2OS), UniProt Q9UBV8 1-284, looked up)
chain: MASYPYRQGCPGAAGQAPGAPPGSYYPGPPNSGGQYGSGLPPGGGYGGPAPGGPYGPPAGGGPYGHPNPGMFPSGTPGGPYGGAAPGGPYGQPPPSSYGAQQPGLYGQGGAPPNVDPEAYSWFQSVDSDHSGYISMKELKQALVNCNWSSFNDETCLMMINMFDKTKSGRIDVYGFSALWKFIQQWKNLFQQYDRDRSGSISYTELQQALSQMGYNLSPQFTQLLVSRYCPRSANPAMQLDRFIQVCTQLQVLTEAFREKDTAVQGNIRLSFEDFVTMTASRML
PEF1 precipitated in the tagged sample relative to the untagged control: 4.8 x
